A protein production outcome set (Wang et al. 2014)

Experiment: label from the status in PepcDB records

Row | Sequence | protein production
1 | AKLMNRFSTTKLNPLIGSAGVSAVPMAARVSNKVGLEANAQNFLLMHAMGPNVAGVIGSAVAAGVMIKYVMG | failed
2 | DMAFQLRTERLDLNMWEESDAVWLRELIGERGVEMPTVESVRNDLIEKRKIAVENGISLLTIRRRDEGDFIGYCGLIIGRSTLEEPEIAYELFRSAHRMGYATEAASAVLEAAIATGRKRLWSTVGAWNTASFRVLEKIGFKR | failed
3 | MASTTRPAPTVGFDLDMTLIDSRPGIRACYVELSARTGTYVDADLAVTRLGPPLAEELANWFPAEEIEAVADLYREIYPAYAIEPTLALPGAREAVTAVRGAGGRAVVVTAKYEPNAKLHLAHLGIEPDAVIGGLWAEQKAVALREHDADVYVGDHVGDVRGARAAGARSVAVASGPCDAGELRAAGADVVLADLTAFPEWLAAYRDGEGDAEGLDAARA | failed
4 | MKLHLEIWRQAGPNSEGHFEPIDVNDAVPQMSVLELLDHVNTGLIEEGKEPFVFASDCREGICGTCGLLVNGRPHGLDKNKPSCQQRLDHVPDGSTLKIEPLRSAAYPVVKDLLVDRSALDRVLEKGGFVSINAGTAPDADTLHQNHESAELALDH | failed
5 | MSKVKIELFTSPMCPHCPAAKRVVEEVANEMPDAVEVEYINVMENPQKAMEYGIMAVPTIVINGDVEFIGAPTKEALVEAIKKRL | not failed
6 | MEEKKIVELEKQVEDYRQFGFVLLSLSIFLFIGLVLPPSYAPQVAAEWLIAGIGGALTFAWLFNRKVVQCQQKLFEEEDQQ | failed
7 | LLKVEFYKLKRSKVFYLFIVLMIMQSMFVLIPIKENYLLNKTGQDMFLQSFPLQEFIFNTLIIGAFGYFIGKEFHSGYIKNLIVSGHKRINIVLSKAIVFCIGVAIISFIFPICTFVINSIRNGYGEKYSVEYMFEVSVIMLFVYLAIGSIVTMISFITKNIAITIALFYLI | failed
8 | PSARDILQQGLDRLGSPEDLASRIDSTLLSPRATEEDVRNLVREASDYGFRCAVLTPVYTVKISGLAEKLGVKLCSVIGFPLGQAPLEVKLVEAQTVLEAGATELDVVPHLSLGPEAVYREVSGIVKLAKSYGAVVKVILEAPLWDDKTLSLLVDSSRRAGADIVKTSTGVYTKGGDPVTVFRLASLAKPLGMGVKASGGIRSGIDAVLAVGAGADIIGTSSAVKVLESFKSLV | not failed
9 | MYNAQLGIGILKYVNTMTKYSALLVLFLFSMIANSINAQPFVALDNRNKIELNEHDLWFKTQSLDTNPSFLALSQLHQNANRVTSTFGGSGAYISKIKLTNTKGQKDTWFVNIHAVYLDIGTAYWQPEHGEPIVLESFGHMGSENPKLAHSQAFSLLLNQNESGTLWVYIQAKMFATPVVVELYSKKEFYKKQFITNSISTISFTVMMTLALIAFFIYLRTKYLVTLACTGYIGIQGLGWFTASGSFGHLLTVSAFNPVYSGIIIFPFAIASASQFTKLLFNCPQKHPKLTLTFNLLSIVCFSLGIIMPFIPFTQSFLISHIIATIWIPLCIGTGIFMLAKNDFRAKYYLIGNLVYGFTLAGYILSHLYKIDWNISLEVIVQIALTIDCMCILLSLSEWLQIQQKEFHRSYAISRIDPLTQIGNRFAQNEKLASLKGPYCITFIDLDGFKKINDKLGHEEGDKVLIATANIMQKKLQELGSIYRCGGDEFIWVVDIENVQQTEAIITKLSDLLLQTEKELQHRGWSEAGLSFGIATSFETLNQSECLSLADQRMYKYKQDKKSIKGLAACS | failed
10 | MMKRHNILTVLAVLLLTFAACDKNSAPGFSFTTDSILTLTFDKELDAAFVGVGTQNYNPVGMRRSGDTLFIANRAEGSDGVWVVRASTGELLYSLTGWTYNGKNEKFDNQVMDVAVSSDYIFVVNRSSRIDLFRRNDYSYVTTIGRTGWQSSSLLQCEAAEVAGDKLFIRDKQKIKVVQISDCTPENRFKVPVFAQNTDSTSSNNGFNLESVARHEGLIYVSDYETSRILVIDPATVAVKGEPVRFLRSYRMPNKPLSMGFFQNEMYVVCANNCIVRVDLRTGKELGSYSSFAGGVGLGTPGRLLFHNDTFYLAGRNANAPRLIQGKVMFVEISELD | failed
11 | MLRSLDIRDMLIIDRLSLAFQPGLNVLTGETGAGKSILLDSLGFVLGWRGRAELVRAGADKGEVTAVFDLPPGHAARAVLDEAGIEAEDELILRRVNFADGRKTAWVNDRRVSGEVLRGLSDRLVELHGQHDDRGLLNPRGHRQMLDTFAGLDLSACRRAWTALGTARRTLLAAEEALAAVRAEEDFLRHAVAELDKLDPQPGEEALLDTRRREMQGAEKIRDDIARAHRALSAEGAETLLVD | failed
12 | MAVAAAKYTTGFWINTIVIILIIAYLVYQLYLYWKRGKISTQLDDDEFRAGMRKAQVIDVREKKEFDAGHILGARNIPYSQMKNRTQELRSDLPVYLYDQGRTFSGRAAMLLSKKGFTQLYILKNGYQRWTGKTKKTKY | failed
13 | MSEKREKQTKSKRRIWRGVTTATASLLTLSMSATLVIDGFRTDIDKFLGTQSTKMVTEDVSAEDYTFQSDYSSTTELLDSIEDLGERMNEEGSVLLKNENAALPLSKEETQKISLLGFSSYYPVQGGDFGSTLSENKGTDADTVDMLEAFESKGFEMNPTLKKMYQGLKEEFKSEAVLPWGVTTYYRATAPATTGVFTSLEPETATLDEAEPNWKKSMTDYNVMIVTLARAAGENANYTPGEDGVNPEQDLNQADPLGLSDTERAIIDEAVNAKKENNGKLIVMLNNASAMEIEEIKNNTGVDAILEVGLPGGYGFYGVADVLSGEVNPSGHLADTYAVDNSSSPAAQNYGNYEWTNADSAYSINSEIVEAEGIYTGYKYYETRYADTVLGQGNASDKTGSSNGKAWNYEDEVSYPFGYGLSYTTFSQTLDSLDVNLEDKTVTAKVTVKNTGDVAGKDVVQLYTSLPYTEYDKEHAVEKAAVQLLDYEKTGVLQPGESVTVEITADAQDMASWDSTCDNAAGTKGNWILDAGDYYFTVGNGSHEAVNNVLAAQGMTKANGMTDAGNAANVKKWTLDTFDSETFAYSKNGTAVENQLQDMDLNYYMPDTVTYLSRSDWKATWPKTYKDLTATDEMIEVMKNNLVEIKEQGNPDEVTFGEDNGLTLASLKGETDLTNEKWTDLIDQITLEEAMIRTGFGGTSTKSIVSIVSPEAVQNDGPNGFNSYTLGQYANTDTDSADPYVIDPDDKNLNYKFGTMSNETVIAQTFSKEMAAEYGAVTGNYSIWSNLPILWGAGTNLHRTPYNARNHEYYSEDAILTAYQAAAYIAAGKEYGCIIAPKHFAFNDTEINRSGIATFMTEQKARENELRGTQASVEDAQTLGMMTTFNRIGCTAGNAHYGLLMNILRKEWGFQGLMSEDFIQDANYSVLKEAVHCGVTMTCNTGDSNMEAVTAKWNYWTTEAVSKDASMMQDLKNVMMWQNYALANSNAMDGLNETSQIKDVRTWYDNALTATSAVLALLTLAAAAMYIRDAKRRKNS | failed
14 | MMSVLARMRVMRHRAWQGLVLLVLALLLSSCGWRGISNVAIPGGPGTGPGSYTIYVQMPDTLAINGNSRVMVADVWVGSIRAIKLKNWVATLTLSLKKDVTLPKNATAKIGQTSLLGSQHVELAAPPDPSPVPLKDGDTIPLKRSSAYPTTEQTLASIATLLRGGGLVNLEGIQQEINAIVTGRADQIRAFLGKLDTFTDELNQQRDDITRAIDSTNRLLAYVGGRSEVLNRVLTDLPPLIKHFADKQELLINASDAVGRLSQSADQYLSAARGDLHQDLQALQCPLKELRRAAPYLVGALKLILTQPFDVDTVPQLVRGDYMNLSLTLDLTYSAIDNAFLTGTGFSGALRALEQSFGRDPETMIPDIRYTPNPNDAPGGPLVERGNRQC | failed
15 | MEALKIALLGGGTVGSAFYNLVLERAEELSAFGVVPRFLGVLVRDPRKPRAIPQELLRAEPFDLLEADLVVEAMGGVEAPLRLVLPALEAGIPLITANKALLAEAWESLRPFAEEGLIYHEASVMAGTPALSFLETLRGSELLELHGILNGTTLYILQEMEKGRTYAEALLEAQRLGYAEADPTLDVEGIDAAHKLTLLARLLVDPGFPFAEVEAQGIARLTPEVLQKAEARGERVRLVASLFGEGGRWRAAVAPRRLPQDHPLARARGNALWVRARPLGEAFVTGPGAGGGATASGLFADLLRFLSGAPGHLPAPRARPPLEEGSPWPGVE | failed
16 | MKGKVVSYLAAKKYGFIQGDDGESYFLHFSELLDKKDEGKLVKGSMVHFDPTPTPKGLAAKAISLPEVFIRERLVDFFTTRDNRPKNGTVIASFPIATRFFKDPSEGRRHLEQLAKHCGCNAVLNVSFEKDTFSKGNYRYTVHAFKGELALVTEKVPADAQELVVASAELLEKRKADVEQAVKQMSEAENLARQKQLSGCLGTLAIITLIPLALVLTAIAVFPA | failed
17 | MQKQAELYRGKAKTVYSTENPDLLVLEFRNDTSAGDGARIEQFDRKGMVNNKFNYFIMSKLAEAGIPTQMERLLSDTECLVKKLDMVPVECVVRNRAAGSLVKRLGIEEGIELNPPLFDLFLKNDAMHDPMVNESYCETFGWVSKENLARMKELTYKANDVLKKLFDDAGLILVDFKLEFGLYKGEVVLGDEFSPDGSRLWDKETLEKMDKDRFRQSLGGLIEAYEAVARRLGVQLD | failed
18 | MLQTINKTLGKIMPLLTPLSVVSGVLLADYLNGLASLVPWIFAFMTFAGSLGANFQSLKTAVAHPLPMFLALFVLHIFMPVLAWSTGHLVFSGDSLTITGLTLGVVIPTGITSMIWAAMYKGNIGLTLSIILVDTILSPFIVPFSLSILAGAHVEMDVIGMMKGLVGMIVIPSLLGMLVNQFSTPERTVRLSANCAPFSKVGLAAVVAINSSVVAPYLKNVDLKFLTIAVTVFLVAFTGYLTAWLIGRLMKRPQEEIVALIFTGGMRNISAGAVLATSFFPPQVAVPVVIGMLFQQILAALFGHLLARSELKKAHHLDKKTSLPS | failed
19 | SRFYEQHADCLAEQYTSLKFEDVHASWRAFWPQARDRVLDVGAGSGRDAKWMAEHGCEVIAIEPAQALLRFGKSYCGDSVTWLEDGLPKLEKTINLGFRFDLILVSAVWMHLAPTHRERAFRKLANLLAPNGRLVISLRHGDFSDGRKAYPVSVEELEKFAKNRALMVRNVS | failed
20 | MTDGTTDGLNKAAVFICHCSGNISEHVDINTVKKTLKAEGFSVYDYEYLCSSQGQALIKKKISEGHVDRVVIGSCTPSKHGTLFKKCIQETGLNRAGLEIANLREQCAWVHPDREGATEKALSLLKAKLKRLENIEPLEDIKVDIAQQVLVIGGGIAGITAALNLADNGVPTFLVEKDSSIGGQMAKIGKIFSPDKLAEECAMCSLSPLMNEVAAHPRITLLTWTEVEKLSGSAGNFTVRLKKKPRYVKDNCIACGKCSRVCPVSVEDEFNCGYMDKKAISLRFSQSVPKVYFIDPDSCLRLKGENCGKCAEACKTGAIDFSQKEEIIELNVGAVVVATGFEEYDVSQKPQYGYGIFENVLTQMELARVLGINGPTKGELLRISDFSKASSDPAPSTCDSRCESSSDHPFEVETPERIVMIQCVGSRDEKEGGNRYCSRYCCMAALKHASLIKKRYPKTEITICYIDMRAFGFYENYYRAVQETGVNFVRGRPAEVIEKPDKSLVVRVEDTLSQKIKEIPADMVVLSAAMVPSPGTKKIASVLNLSQDESGFIKERHSKLKPVDCSLDGIFVCGTAQSPKDVTDTIAQAGLAAVRARAFITDSPKVLDNEIAAINQLLCTRCGECLKCPFDALSINENGRVVLDPLICTGCGYCTELCREGAVQIAGFTKSQLKAELEGVLEEGDVLGFVNSGISSLTCDNIGNSVLTYPSSVKLIKVPTCLIVDRDLVLHAFRHGASSVLFVEDPPDSPRAEVIYPLTVSHFEKLKEELGDSGKRIHFKKAYVPNIKGLAGTFTSLAREGEMIK | failed
21 | MTWSFTLGRLFGSELKVHVTFFLLIGWIGVSAYQMGGWPSAVENTAFVLALFACVVAHEYGHALTARRYGIRTPDITLLPIGGLARLDRMPEKPGQEIVVALAGPAVNVAIWAALTLVGVDTRFETLAAIDSAEPDFLGRLAMVNLFLAVFNLIPAFPMDGGRVLRAALSLTMDRVRATRIAAAAGQLVALLFGFAGLSGGNPVLVLIAVFVFIAANAEAQDVAMRAVTRRLLARDAMITRFEALGPTDTLATAAQAVLHTTQHEFPVLDGEGHLLGFVTRARLFAALAADHPRSDPAETVMDREIPQVPLASGLETVLDALYQGAPAVAVTSADGRMLGYVTRENVGELMVIQGR | failed
